The source of these data is article PMC11161652, “ASXLs binding to the PHD2/3 fingers of MLL4 provides a mechanism for the recruitment of BAP1 to active enhancers” (Nature Communications, 2024).

Assay [1] has as its system GST-MLL3PHD2/3. Kind of assay: GST pull-down, WT MLL3PHD2/3. In kind it is binding, human. Particulars: WT GST-MLL3PHD2/3; HEK293FT lysate, 3 h at 4 °C, western blot; n = 3. As for the experimental part:
(§1) Pull-down assays were performed by mixing resin-bound GST-MLL3PHD2/3 and GST-MLL4PHD2/3 (wild type and mutants) with lysates of HEK293FT expressing Myc-ASXL1, Myc-ASXL2 or Myc-ASXL2ΔMBH. Pellets of HEK293FT cells transfected with the appropriate pDEST expression construct (15 μg/dish using polyethylenimine (PEI)) were lysed with 10 times their volume of lysis buffer (50 mM Tris pH 7.3, 100 mM NaCl, 1 mM DTT, 1 mM EDTA, 1 mM PMSF, 0.1% Tween20, 1/100 anti-protease (Sigma)) and sonicated with a probe sonicator (Branson digital sonifier 450) calibrated at 40% amplitude for 3–4 rounds during 40–60 s. Lysates were then centrifuged in a Sorvall Lynx 6000 (rotor: F21-8x50Y) at 15,000 RPM during 20 min. Approximatively 9 μg of purified GST-fusion proteins bound to GSH resin (Sigma, G4510) were used for each condition. Final volume of GSH resin was adjusted to 30 μl per condition with empty GSH beads and incubated with 1.5 mL of HEK293FT lysate expressing Myc-ASXL1, Myc-ASXL2 or Myc-ASXL2ΔMBH for 3 h at 4 °C on a rotative system. A fraction of the reaction mixture (80 μL) was collected as the input. After the incubation, beads were washed 5 times and mixed with 100 μL of Laemmli buffer. Samples were loaded on 8% or 15% SDS-acrylamide gels and processed for western blotting.
(In general: A western blot detects proteins with antibodies after separation by electrophoresis.)

The subject of assay [2] is GST-MLL4PHD2/3. In words: GST pull-down, WT MLL4PHD2/3. Particulars: WT GST-MLL4PHD2/3; HEK293FT lysate, 3 h at 4 °C, western blot; n = 3. In kind it is binding, human. How it is done:
as §1

In assay [3] the test system is MLL4PHD2/3 or MLL3PHD2/3 mutants. In words: GST pull-down, mutated MLL3/4PHD2/3. In kind it is binding, human. Particulars: mutated GST-MLL3/4PHD2/3; HEK293FT lysate, 3 h at 4 °C, western blot; n = 3. As for the experimental part:
as §1

For assay [4], the system named is D372K/D400K MLL3PHD2/3 mutant. Kind of assay: GST pull-down, D372K/D400K MLL3PHD2/3. It is filed as binding, human. To be noted: D372K/D400K GST-MLL3PHD2/3; HEK293FT lysate, western blot. As for the experimental part: as §1
The test system of assay [5] is PR-DUB complex. Kind of assay: Tandem affinity purification: association with PR-DUB complex. In kind it is cell-based, human. Particulars: K562 soluble nuclear extracts, 3Flag-2Strep tag, western blot and mass spectrometry. How it is done:
(§2) Isogenic K562 cell lines expressing 3xFlag2xStrep-tagged ASXL2 WT and ΔMBH (aa 650-670), were generated by integration at the AAVS1 safe harbor locus after DSB induction and recombination targeted by co-transfection with a ZFN expression plasmid, as previously described. 2 × 10^5 cells were transfected with 400 ng of ZFN expression vector and 4 μg of donor constructs. Selection and cloning were performed in RPMI medium supplemented with 0.5 μg/mL puromycin starting 2–3 days post transfection. Clones were obtained by limiting dilution and expanded before harvest for western blot analysis.
(§3) For purification of native complexes, after large-scale expansion of K562 clones, affinity purifications of tagged ASXL2 WT and ΔMBH (aa 650-670) were performed on nuclear extracts as previously described. Briefly, nuclear extracts were prepared following standard procedures and pre-cleared with CL6B Sepharose beads. […] Typically, 5–15 μl of the elutions (1–3% of total) was loaded on NuPAGE 4–12% Bis-Tris gels (Invitrogen) and analyzed by silver staining and western blots. […] Purified fractions were prepared and analyzed at the Proteomics Platform of the Quebec Genomic Center using an Orbitrap Fusion mass spectrometer (Thermo Fisher Scientific) as previously described. […]

Assay [6] concerns MLL3/4 complexes. Kind of assay: Tandem affinity purification: interaction with MLL3/4 complexes. In kind it is cell-based, human. To be noted: K562 soluble nuclear extracts, 3Flag-2Strep tag, western blot and mass spectrometry. As for the experimental part:
as §2, §3

Assay [7] deals with H2AK119. Kind of assay: H2AK119 deubiquitination assay. To be noted: purified complexes on human chromatin, 37 °C, 3 or 6 h, immunoblot. It is filed as biochemical, human.
Experimental: The deubiquitination reactions were done by adding equivalent amounts of ASXL2 WT or ΔMBH (4 μl E1-F) native complexes purified from K562 cells to 0.5 μg of chromatin enriched extracts from K562 cells, incubated at 37 °C in 50 mM Tris-HCl pH 7.3, 50 mM NaCl, 1 mM MgCl2, 1 mM DTT, 1 mM PMSF, 10 μg/ml Leupeptin, 10 μg/ml Pepstatin A, 25 μg/ml Aprotinin. After 3 or 6 h incubation, 4X Laemmli buffer was added, the samples run on 15% SDS-PAGE and transferred on nitrocellulose membrane. Immunoblotting was performed with an anti-H2AK119ub (Cell Signaling, D27C4, rabbit polyclonal) diluted 1:2000 followed by HRP conjugated secondary goat anti-rabbit antibody (Sigma) used at a 1:10,000 dilution. The immunoblots were visualized using a Western Lightning plus-ECL reagent (Perkin-Elmer). Anti-H3 (Abcam, Ab1791, rabbit polyclonal) was used at a 1:50,000 dilution.
Cell pellets were harvested 2 days post-transfection and lysed with 10 times their own volume with EB300 lysis buffer (50 mM Tris pH 7.3, 300 mM NaCl, 0.5% Triton X100 (V/V), 5 mM EDTA, 50 mM NaF, 1 mM Na3VO4 (activated), 10 mM Beta-glycerol-phosphate, 1 mM DTT, 1 mM PMSF, 1/100 anti-protease (Sigma)). Lysates were incubated on ice for 30 min before centrifugation in a Sorvall Lynx 6000 (rotor: F21-8x50Y) at 15,000 RPM during 20 min. Supernatants were collected and diluted with EB0 (50 mM Tris pH 7.3, 0.5% Triton X100 (V/V), 5 mM EDTA, 50 mM NaF, 1 mM Na3VO4, 10 mM Beta-glycerol-phosphate, 1 mM DTT, 1 mM PMSF, 1/100 anti-protease) to adjust the final concentration of NaCl to 150 mM. Agarose anti-FlagM2 beads (40 μL) (Sigma, A2220) were added to each lysate and incubated overnight at 4 °C on a rotative system. The next day, beads were washed 5 times with the wash buffer (50 mM Tris pH 7.3, 150 mM NaCl, 0.5% Triton X100 (V/V), 1/500 anti-protease, 1 mM DTT, 1 mM PMSF). […] Following three elutions of 2 h each, the pooled fractions were incubated with 40 μL of anti-HA beads (Sigma A2095) overnight at 4 °C on a rotative system. […]
Assay [8] relates to H3K4 (recombinant histone octamers or mono-nucleosomes). In words: H3K4 histone methyltransferase assay. In kind it is biochemical, human. Particulars: purified complexes, 50 μM S-adenosyl-L-methionine, 8 h at 30 °C, n = 2. As for the experimental part:
Equivalent amounts of purified ASXL2 WT and ΔMBH complexes were incubated with 0.5 μg of reconstituted recombinant mono-nucleosomes or histone octamers as substrates. All HMT assays were performed in 50 mM Tris-HCl pH 8, 100 mM KCl, 5 mM MgCl2, 0.1 mM DTT, 10% glycerol in the presence of 50 μM S-adenosyl-L-methionine (Sigma, A7007). After an 8 h incubation at 30 °C, 4X Laemmli buffer was added, the samples run on 15% SDS-PAGE and transferred on nitrocellulose membrane. Immunoblotting was performed with an anti-H3K4me1 (Ab8895, rabbit polyclonal) diluted 1:1000 followed by HRP conjugated secondary goat anti-rabbit antibody (Sigma) used at a 1:10,000 dilution. The immunoblots were visualized using a Western Lightning plus-ECL reagent (Perkin-Elmer). Anti-H4 (Abcam, Ab7311, rabbit polyclonal) was used at a 1:2,500 dilution.

The subject of assay [9] is active enhancer upstream of GRHL2 gene in K562 ASXL2 KD cells. Kind of assay: ChIP-qPCR at active enhancer upstream of GRHL2. In kind it is cell-based, human. To be noted: K562 ASXL2 KD cells complemented from AAVS1; IP/input corrected for total H3; three biological replicates. From the text: K562 cell lines with knocked down expression of endogenous ASXL2 were obtained after double infection of lentivirus expressing Cas9 and 4 different gRNAs targeting the end of exon 1 (pLENTI_CRISPR_V2, co-selection by FACS with GFP). Clone 1 L was selected (obtained with gRNA 1: 5′-[…]-3′ cutting at the very end of exon 1) for transfection of WT and DMBH ASXL2 vectors for integration and stable expression from the AAVS1 safe harbor, as described for the tagged K562 cell lines used for purification. Expression levels of endogenous ASXL2, WT and ΔMBH ASXL2 were monitored by running SDS-PAGE and transferring onto nitrocellulose membrane. Anti-FLAG M2 conjugated to horseradish peroxidase (A8592, Sigma) was used at 1:10,000 dilution and anti-ASXL2, at 1:2,000 (Cell Signaling (E623X), CS71257, lot:1). Immunoblots were visualized using a Western Lightning plus ECL reagent (Perkin-Elmer).
Crosslinked chromatin from K562 cells and immunoprecipitations were prepared as previously described. For chromatin immunoprecipitation, 100 μg of chromatin was incubated with 2 μg anti-H2AK119ub (Cell Signaling, 8240S, D27C4 lot:9) or 3 μg anti-H3 (Abcam, ab1791, lot GR3421644-1), 2 μg anti-H3Kme1 (Abcam, ab8895, lot GR442591-1), 2 μg anti-H3K27ac (Thermo Fisher, MA5-23516, lot: ZA4181671) or 0.3 μg anti-H3K27me3 (Cell Signaling, C36B11, 9733 S lot:19) antibodies overnight at 4 °C. 25 μl of Protein A Dynabeads were then added to each sample, and the mixtures were incubated at 4 °C for 4 h. The beads were washed extensively and eluted with 1% SDS and 0.1 M NaHCO3. Cross-linked samples were reversed by heating overnight at 65 °C in the presence of 0.2 M NaCl. Samples were then treated with RNase A and proteinase K for 2 h, and DNA was recovered using MinElute PCR purification Kit (Qiagen, 28004) according to the manufacturer’s instructions. Quantitative real-time PCR corrected for primer efficiencies in the linear range was performed using SYBR Green I (Roche, 04877352001) on a LightCycler 480 (Roche). Primers for 5′ end of active enhancer: Fwd: 5′-[…]; Rev: 5′-[…]; For 3′ end: Fwd: 5′-[…], Rev: 5′-[…].

B1: full-length ASXL2: full length wild type ASXL2 expressed in HEK293FT or K562 cells (protein)
chain: MREKGRRKKGRTWAEAAKTVLEKYPNTPMSHKEILQVIQREGLKEIRSGTSPLACLNAMLHTNSRGEEGIFYKVPGRMGVYTLKKDVPDGVKELSEGSEESSDGQSDSQSSENSSSSSDGGSNKEGKKSRWKRKVSSSSPQSGCPSPTIPAGKVISPSQKHSKKALKQALKQQQQKKQQQQCRPSISISSNQHLSLKTVKAASDSVPAKPATWEGKQSDGQTGSPQNSNSSFSSSVKVENTLLGLGKKSFQRSERLHTRQMKRTKCADIDVETPDSILVNTNLRALINKHTFSVLPGDCQQRLLLLLPEVDRQVGPDGLMKLNGSALNNEFFTSAAQGWKERLSEGEFTPEMQVRIRQEIEKEKKVEPWKEQFFESYYGQSSGLSLEDSKKLTASPSDPKVKKTPAEQPKSMPVSEASLIRIVPVVSQSECKEEALQMSSPGRKEECESQGEVQPNFSTSSEPLLSSALNTHELSSILPIKCPKDEDLLEQKPVTSAEQESEKNHLTTASNYNKSESQESLVTSPSKPKSPGVEKPIVKPTAGAGPQETNMKEPLATLVDQSPESLKRKSSLTQEEAPVSWEKRPRVTENRQHQQPFQVSPQPFLNRGDRIQVRKVPPLKIPVSRISPMPFHPSQVSPRARFPVSITSPNRTGARTLADIKAKAQLVKAQRAAAAAAAAAAAAASVGGTIPGPGPGGGQGPGEGGEGQTARGGSPGSDRVSETGKGPTLELAGTGSRGGTRELLPCGPETQPQSETKTTPSQAQPHSVSGAQLQQTPPVPPTPAVSGACTSVPSPAHIEKLDNEKLNPTRATATVASVSHPQGPSSCRQEKAPSPTGPALISGASPVHCAADGTVELKAGPSKNIPNPSASSKTDASVPVAVTPSPLTSLLTTATLEKLPVPQVSATTAPAGSAPPSSTLPAASSLKTPGTSLNMNGPTLRPTSSIPANNPLVTQLLQGKDVPMEQILPKPLTKVEMKTVPLTAKEERGMGALIATNTTENSTREEVNERQSHPATQQQLGKTLQSKQLPQVPRPLQLFSAKELRDSSIDTHQYHEGLSKATQDQILQTLIQRVRRQNLLSVVPPSQFNFAHSGFQLEDISTSQRFMLGFAGRRTSKPAMAGHYLLNISTYGRGSESFRRTHSVNPEDRFCLSSPTEALKMGYTDCKNATGESSSSKEDDTDEESTGDEQESVTVKEEPQVSQSAGKGDTSSGPHSRETLSTSDCLASKNVKAEIPLNEQTTLSKENYLFTRGQTFDEKTLARDLIQAAQKQMAHAVRGKAIRSSPELFSSTVLPLPADSPTHQPLLLPPLQTPKLYGSPTQIGPSYRGMINVSTSSDMDHNSAVPGSQVSSNVGDVMSFSVTVTTIPASQAMNPSSHGQTIPVQAFSEENSIEGTPSKCYCRLKAMIMCKGCGAFCHDDCIGPSKLCVSCLVVR
modifications: left off: Myc, end not stated, kept
notes: full length wild type ASXL2 expressed in HEK293FT or K562 cells
Take B1: the association in pull-down entry was “detected” in [1], “detected” in assay [2], “not with the MLL4PHD2/3 or MLL3PHD2/3 mutants” in assay [3] and “unable to bind full-length ASXL2” in [4]. For the same molecule, the “association with PR-DUB complex” value in assay [5] was “stably associates with the expected components of the PR-DUB complex”. For the same molecule, the “interaction with MLL3/4 complexes” value in assay [6] was “co-fractionation of the PR-DUB complex with the components of the MLL3/4 complexes”. In addition, in assay [7], the “de-ubiquitination of H2AK119” value is “efficient and equivalent de-ubiquitination of H2AK119”. Further, the “mono-methylation of H3K4” value in assay [8] is “clearly detected”. Also, the H2AK119ub level entry in assay [9] is listed as “decrease in H2AK119ub level at this enhancer”. For the same molecule, the H3K4me1 level result in assay [9] was “not affected”.
